Experimental data published in patent US20220356230A1 (published 2022).
Where a chain is given by its changes, count along the chain named.

T1: MERS-CoV (SARS-CoV-2) Spike Protein (ECD, aa 1-1297, His Tag) (Sino 40069-[change]) (MERS-CoV, UniProt K9N5Q8 18-1297)
T1 sequence: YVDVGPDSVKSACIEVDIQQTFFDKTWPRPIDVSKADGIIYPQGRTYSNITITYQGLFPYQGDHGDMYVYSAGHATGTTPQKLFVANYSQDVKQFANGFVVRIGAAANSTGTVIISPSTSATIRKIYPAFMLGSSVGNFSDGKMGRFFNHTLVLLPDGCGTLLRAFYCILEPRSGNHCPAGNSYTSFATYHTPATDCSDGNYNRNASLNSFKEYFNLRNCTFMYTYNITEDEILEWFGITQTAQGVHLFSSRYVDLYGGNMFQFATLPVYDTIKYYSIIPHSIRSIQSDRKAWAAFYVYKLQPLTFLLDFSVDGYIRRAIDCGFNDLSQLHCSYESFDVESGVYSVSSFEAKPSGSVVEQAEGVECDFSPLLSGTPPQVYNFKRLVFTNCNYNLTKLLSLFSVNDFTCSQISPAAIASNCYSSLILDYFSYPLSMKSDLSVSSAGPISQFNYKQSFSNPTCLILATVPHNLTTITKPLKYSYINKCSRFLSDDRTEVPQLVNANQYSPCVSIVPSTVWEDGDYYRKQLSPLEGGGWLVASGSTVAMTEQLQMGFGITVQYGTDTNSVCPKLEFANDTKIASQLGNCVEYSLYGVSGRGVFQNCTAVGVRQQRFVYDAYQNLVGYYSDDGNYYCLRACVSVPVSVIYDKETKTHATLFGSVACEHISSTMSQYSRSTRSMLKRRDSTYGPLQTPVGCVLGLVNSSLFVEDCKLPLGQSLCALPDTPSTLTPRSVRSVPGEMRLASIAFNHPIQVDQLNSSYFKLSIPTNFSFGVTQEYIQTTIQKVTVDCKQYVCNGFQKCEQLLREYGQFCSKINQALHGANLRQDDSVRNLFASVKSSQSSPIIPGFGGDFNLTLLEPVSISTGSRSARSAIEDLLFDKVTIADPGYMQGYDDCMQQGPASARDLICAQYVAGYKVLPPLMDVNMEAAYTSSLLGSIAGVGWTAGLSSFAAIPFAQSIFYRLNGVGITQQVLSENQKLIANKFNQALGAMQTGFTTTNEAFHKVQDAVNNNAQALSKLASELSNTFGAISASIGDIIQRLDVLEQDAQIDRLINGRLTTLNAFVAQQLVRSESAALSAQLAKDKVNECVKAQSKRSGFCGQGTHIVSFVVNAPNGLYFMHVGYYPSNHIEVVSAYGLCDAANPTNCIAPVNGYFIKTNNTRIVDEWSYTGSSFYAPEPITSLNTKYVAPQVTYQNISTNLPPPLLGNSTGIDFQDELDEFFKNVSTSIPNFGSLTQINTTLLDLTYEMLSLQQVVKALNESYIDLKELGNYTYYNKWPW

T2: MERS-CoV (SARS-CoV-2) Spike Protein S2 (aa 726-1296, His Tag) (Sino 40070-[change]) (MERS-CoV, UniProt K9N5Q8 726-1296)
T2 sequence: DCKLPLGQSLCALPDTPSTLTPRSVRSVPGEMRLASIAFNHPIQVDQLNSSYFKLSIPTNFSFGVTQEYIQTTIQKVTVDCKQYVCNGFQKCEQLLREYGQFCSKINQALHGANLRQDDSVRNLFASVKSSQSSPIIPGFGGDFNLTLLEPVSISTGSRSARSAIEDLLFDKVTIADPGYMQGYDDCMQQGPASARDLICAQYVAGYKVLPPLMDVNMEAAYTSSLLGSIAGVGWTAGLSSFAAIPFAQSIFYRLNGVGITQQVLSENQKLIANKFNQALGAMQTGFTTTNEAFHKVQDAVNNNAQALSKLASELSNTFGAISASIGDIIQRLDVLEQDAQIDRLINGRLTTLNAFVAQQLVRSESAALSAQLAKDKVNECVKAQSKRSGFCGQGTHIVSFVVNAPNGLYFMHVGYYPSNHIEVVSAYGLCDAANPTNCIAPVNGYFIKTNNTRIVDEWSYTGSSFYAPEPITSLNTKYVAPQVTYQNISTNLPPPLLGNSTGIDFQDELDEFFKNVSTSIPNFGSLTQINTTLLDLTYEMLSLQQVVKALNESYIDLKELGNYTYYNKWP

B1: mAb10986 (antibody, V domains shown)
VH: EVQLVESGGGLVQPGGSLRLSCAASEFTVSSNYMSWVRQAPGKGLEWVSVIYSGGSTFYADSVKGRFTISRDNSKNTLYLQMNSLRAEDTAVYYCARALPYGDLHFDYWGQGTLVTVSS
VL: QSVLTQPPSVSGAPGQRVTISCTGSSSNIGTGYDVHWYQQLPGTAPKLLIYGNTNRPSGVPDRFSGSKSGTSASLAITGLQAEDEADYYCQSYDSSLSDSYVFGTGTKVTVLG
B2: mAb10914 (antibody, V domains shown)
VH: EVQLVESGGGLVQPGGSLRLSCAASGLIVSRNYMIWVRQAPGKGLEWVSVIYSGGSTFYADSVKGRFTISRHNSKNTLYLQMNSLRAEDTAVYYCARDLGTGGMDVWGQGTTVTVSS
VL: DIQLTQSPSFLSASVGDRVTITCWASQGISSYLAWYQQKPGKAPKLLIYAASTLQSGVPSRFSGSGSGTEFTLTISSLQPEDFATYYCQQLNSYPLTFGGGTKVEIKR
B3: mAb10913 (antibody, V domains shown)
VH: EVQLVESGGGLVQPGGSLRLSCAASGFTFRNYEMNWVRQAPGKGLEWVSYITSSGSTMYYADSVKGRFTISRDNAKNSLYLQMNSLRAEDTAVYYCARDGFYYYYAMDVWGQGTTVTVSS
VL: QSVLTQPPSVSAAPGQKVTISCSGSSSNIGNNYVSWYQQLPGTAPKLLIYDNNKRPSGIPDRFSGSKSGTSATLGITGLQTGDEADYYCGTWDSSLSVGRVFGTGTKVTVLG
B4: mAb10915 (antibody, V domains shown)
VH: EVQLVESGGGLVQPGGSLRLSCAASGFTVSSNYMNWVRQAPGKGLEWVSVIYSGGSTFYADSVKGRFTISRHNSKNTLYLQMNSLRPEDTAVYYCARDLGGYFDYWGQGTLVTVSS
VL: not shown
B5: mAb10933 (antibody, V domains shown)
VH: QVQLVESGGGLVKPGGSLRLSCAASGFTFSDYYMSWIRQAPGKGLEWVSYITYSGSTIYYADSVKGRFTISRDNAKSSLYLQMNSLRAEDTAVYYCARDRGTTMVPFDYWGQGTLVTVSS
VL: DIQMTQSPSSLSASVGDRVTITCQASQDITNYLNWYQQKPGKAPKLLIYAASNLETGVPSRFSGSGSGTDFTFTISGLQPEDIATYYCQQYDNLPLTFGGGTKVEIKR
B6: mAb10934 (antibody, V domains shown)
VH: not shown
VL: B5 VL with T30W, L33I, A50D, E55K, G77S, Y91H, N93D, L96P, G100Q

Experiments:
[1] = biological target: SARS-CoV-2 spike protein (S-wt, Wuhan-Hu-1, NCBI Accession Number MN908947.3) on VSV-SARS-CoV-2-S … (SARS-CoV-2, UniProt P0DTC2 14-1273); experiment: cell-based or functional assay
[2] = biological target: T1, MERS-CoV (SARS-CoV-2) Spike Protein …; experiment: Luminex bead assay, supernatant on antigen microspheres
[3] = biological target: T2, MERS-CoV (SARS-CoV-2) Spike Protein S2 …; experiment: as above

Binder | mAb neutralization potency (IC50 (M)) [1] [M] | Binding signal (MFI) [2] [MFI] | Binding signal (MFI) [3] [MFI]
B1 | 9.91e-11 |  | 
B2 |  | 19 | 28
B3 |  | 20 | 26
B4 |  |  | 23
B5 |  |  | 19
B6 |  | 15 | 
